Laboratory results from patent US20030059419.
Positions count from the first letter of the chain named. Numbers in names are those of the source.

T1: GST-I-TRAF (human I-TRAF as a chimera protein with glutathione S transferase, purified from E. coli), Q92844
T1 chain: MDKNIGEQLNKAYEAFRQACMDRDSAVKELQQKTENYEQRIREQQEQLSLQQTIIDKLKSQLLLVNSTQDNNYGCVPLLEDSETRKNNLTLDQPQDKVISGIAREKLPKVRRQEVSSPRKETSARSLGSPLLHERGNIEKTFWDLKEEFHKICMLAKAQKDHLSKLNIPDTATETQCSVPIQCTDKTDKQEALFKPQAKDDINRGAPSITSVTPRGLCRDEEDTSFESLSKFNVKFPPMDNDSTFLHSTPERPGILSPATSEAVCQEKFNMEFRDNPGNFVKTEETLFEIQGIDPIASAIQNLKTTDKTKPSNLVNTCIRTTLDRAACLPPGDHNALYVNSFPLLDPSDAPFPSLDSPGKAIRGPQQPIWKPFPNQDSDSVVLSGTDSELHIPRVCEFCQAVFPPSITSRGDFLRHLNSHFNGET

T2: Myc-I-TRAF (human I-TRAF, full length, with a Myc epitope added to the N-terminal), Q92844
T2 chain: T1 chain

B1: Flag-IKK-i (human IKK-i with a Flag epitope linked to the N-terminal) (protein)
chain: MQSTANYLWHTDDLLGQGATASVYKARNKKSGELVAVKVFNTTSYLRPREVQVREFEVLRKLNHQNIVKLFAVEETGGSRQKVLVMEYCSSGSLLSVLESPENAFGLPEDEFLVVLRCVVAGMNHLRENGIVHRDIKPGNIMRLVGEEGQSIYKLTDFGAARELDDDEKFVSVYGTEEYLHPDMYERAVLRKPQQKAFGVTVDLWSIGVTLYHAATGSLPFIPFGGPRRNKEIMYRITTEKPAGAIAGAQRRENGPLEWSYTLPITCQLSLGLQSQLVPILANILEVEQAKCWGFDQFFAETSDILQRVVVHVFSLSQAVLHHIYIHAHNTIAIFQEAVHKQTSVAPRHQEYLFEGHLCVLEPSVSAQHIAHTTASSPLTLFSTAIPKGLAFRDPALDVPKFVPKVDLQADYNTAKGVLGAGYQALRLARALLDGQELMFRGLHWVMEVLQATCRRTLEVARTSLLYLSSSLGTERFSSVAGTPEIQELKAAAELRSRLRTLAEVLSRCSQNITETQESLSSLNRELVKSRDQVHEDRSIQQIQCCLDKMNFIYKQFKKSRMRPGLGYNEEQIHKLDKVNFSHLAKRLLQVFQEECVQKYQASLVTHGKRMRVVHETRNHLRLVGCSVAACNTEAQGVQESLSKLLEELSHQLLQDRAKGAQASPPPIAPYPSPTRKDLLLHMQELCEGMKLLASDLLDNNRIIERLNRVPAPPDV
B2: mutant IKK-i (K38A), Flag-tagged human IKK-i with the No. 38 lysine replaced by alanine (protein)
chain: B1 chain with K38A

Experiments:
[1] = target: T1, GST-I-TRAF (human I-TRAF as a chimera …)
[2] = target: GST-IκB-αN protein (AA), GST-IκB-αN with the No. 32 and No. 36 serine residues replaced by alanine [GST: P08515]
[3] = target: GST-IκB-αN protein (WT), amino acids 1-72 of IκB-α fused to GST [GST: P08515]
[4] = target: Myc-I-TRAF (1-247) defective mutant, human I-TRAF amino acids No. 1-247 with N-terminal Myc, Q92844
[5] = target: T2, Myc-I-TRAF (human I-TRAF, full length, …)

| Protein | in vitro kinase assay with purified GST-I-TRAF (1.0 µg) added to the anti-Flag immunoprecipitate [1] | in vitro kinase assay ([γ-32P]ATP, 30° C., 20 minutes, SDS-PAGE, autoradiography) [2] | in vitro kinase assay ([γ-32P]ATP, 30° C., 20 minutes, SDS-PAGE, autoradiography) [3] | in vitro kinase assay on immunoprecipitates, I-TRAF deletion mutants [4] | in vitro kinase assay ([γ-32P]ATP) on immunoprecipitates [5] | in vitro kinase assay on immunoprecipitates, I-TRAF deletion mutants [5] |
| --- | --- | --- | --- | --- | --- | --- |
| B1 | in cells in which Flag-IKK-i was expressed, phosphorylation of GST-I-TRAF was observed | IKK-i did not phosphorylate GST-IκB-αN protein (AA) | IKK-i phosphorylated GST-IκB-αN protein (WT) | phosphorylations of FL (lanes 4 and 8) and Myc-I-TRAF (1-247)(lanes 2 and 6) were confirmed | Bands of phosphorylated Myc-I-TRAF were detected in both of immunoprecipitates with anti-Flag antibody (lane 2) or anti-Myc antibody (lane 4) | phosphorylations of FL (lanes 4 and 8) and Myc-I-TRAF (1-247)(lanes 2 and 6) were confirmed |
| B2 | No phosphorylation was observed with the K38A mutant | – | K38A-IKK-i did not phosphorylate GST-IκB-αN protein (WT) | – | – | – |
